According to paper PMC10318062 (Nature Communications, 2023):
Read-outs that look alike come from different tables or passages of the source.

Legend:
[1] = biological target: SARS-CoV-2 hexaproline stabilized pre-fusion spike glycoprotein (S6P) (SARS-CoV-2, ancestral (Wuhan-Hu-1 …, UniProt P0DTC2, stabilised))
[2] = biological target: T1, SARS-CoV-2 Receptor Binding Domain (RBD) (SARS-CoV-2, UniProt P0DTC2)
[3] = biological target: T1, SARS-CoV-2 Receptor Binding Domain (RBD); test: AlphaScreen or HTRF; details: one partner purified

Binder | binding result [1] | binding result [2] | binding result [3]
COVA1-16 (antibody, V domains shown) VH: QVQLVQSGAEVKKPGASVKVSCKASGYTFTSYYMHWVRQAPGQGLEWMGIINSSGGSTSYAQKFQGRVTMTRDTSTSTVYMELSSLRSEDTAVYYCARPPRNYYDRSGYYQRAEYFQHWGQGTLVTVSS VL: DIQLTQSPSSLSASVGDRVTITCQASQDISNYLNWYQQRPGKAPKLLIYDASNLETGVPSRFSGSGSGTDFTFTISSLQPEDIATYYCQQYDNPPLTFGGGTKLEIK | binds | binds | –
COVA2-02 (antibody, V domains shown) VH: VQLQQESGPGLVKPSETLSLTCTVSGGSISSSSYYWGWIRQPPGKGLEWIGSIYYSGSTYYNPSLKSRVTISVDTSKNQFSLKLSSVTAADTAVYYCARRSTSRWGYYYMDVWGKGTRVTVSS VL: DIVMTQSPSSLSASVGDRVTITCRASQSISNYLNWYQQKPGKAPKLLLYAASDLQSGVPSRFSGSGSGTDFTLTISSLQPEDFATYYCQQSYSTHMSTFGQGTKVDIK | binds | binds | –
COVA2-15 (antibody, V domains shown) VH: QVQLLESGGGLVQPGGSLRLSCAASGFTFSSYAMSWVRQAPGKGLEWASAISGSGGSTYYADSVEGRFTISRDNSKNTLYLQMNSLRAEDTAVYYCAKDTGYCGDDCYIKLIRGGPDYWGQGTLVTVSS VL: DIVMTQSPLSLPVTLGQPASISCRSSQSLVYSDGNTFLNWFQQRPGQSPRRLIYQVSNRDSGVPDRFSGSGSGTDFTLKISRVEAEDVGVYYCMQGTHWPRTFGQGTKLEIK | binds | binds | –
COVA2-16 (antibody, V domains shown) VH: QVQLVQSGAEVKKPGATVKISCKVSGYTFTDYYMHWVQQAPGKGLEWMGLVDPEDGETIYAEKFQGRVTITADTSTDTAYMELSSLRSEDTAVYYCASSDSSGFVGSRGFDYWGQGTRVTVSS VL: DIQLTQSPSSLSASVGDRVTITCRASQGIRNDLGWYQQKPGKAPKRLIYAASSLQSGVPSRFSGSGSGTEFTLTISSLQPEDFATYYCLQHNSYPPLFGQGTKVEIK | binds | binds | –
COVA2-17 (antibody, V domains shown) VH: QVQLVESGAEVKKPGSSVKVSCKASGGTFSSYGINWVRQAPGQGLEWMGGIIPIFGTANYAQKFQGRVTITTDESTSTAYMELSSLRSEDTAVYYCASFGDDSGDEGVRWGQGTLVTVSS VL: EIVMTQSPATLSLSPGERATLSCRASQSVSSYLAWYQQKPGQAPRLLIYDASNRATGIPARFSGSGSGTDFTLTISSLEPEDFAVYYCQQRSNWPPYTFGQGTKVEIK | binds | binds | –
COVA2-20 (antibody, V domains shown) VH: EVQLVESGGGLIQPGGSLRLSCAASGFTVSSNYMSWVRQAPGKGLEWVSVIYSGGSTYYADSVKGRFTISRDNSKNTLYLQMNSLRAEDTAVYYCASPLLLTPPDYYYYMDVWGKGTMVTVSS VL: DVVMTQSPSSLSVSVGDRVTITCRASQGIRNDLGWYQQKPGKAPKRLIYAASSLQSGVPSRFSGSGSGTEFTLTISSLQPEDFATYYCLQHNSYLWTFGQGTKLEIK | binds | binds | –
COVA2-05 (antibody, V domains shown) VH: EVQLLESGAEVKKPGESLKISCKGSGYSFTSYWIGWVRQMPGKGLEWMGIIYPGDSDTRYSPSFQGQVTISADKSISTAYLQWSSLKASDTAMYYCARHMRPSIAARPGYQYYMDVWGKGTRVTVSS VL: not shown | – | binds | –
COVA2-07 (antibody, V domains shown) VH: EVQLVETGGGLIQPGGSLRLSCAASGLTVSSNYMNWVRQAPGKGLEWVSVIYSGGSTYYADSVKGRFTISRDNSKNTLYLQMNSLRAEDTAVYYCAREAYGMDVWGQGTMVTVSS VL: not shown | – | binds | –
COVA2-11 (antibody, V domains shown) VH: EVQLVESGAEVKKPGSSVKVSCKASGGTLSSYAISWVRQAPGQGLEWMGGIIPIFGTANYAQKFQGRVTITTDESTSTAYMELSSLRSEDTAVYYCARGPRGCSSTSCYGSYFDYWGQGTLVTVSS VL: not shown | – | binds | –
COVA2-24 (antibody, V domains shown) VH: EVQLVQSGAEVKKPGESLRISCKGSGYSFTSYWISWVRQMPGKGLEWMGRIDPSDSYTNYSPSFQGHVTISADKSISTAYLQWSSLKASDTAMYYCARPNPAGGYDSSGWVDAFDIWGQGTRVTVSS VL: not shown | – | binds | –
COVA2-34 (antibody, V domains shown) VH: QVQLVESGGGVVQPGRSLRLSCAASGFTFSSYAMHWVRQAPGKGLEWVAVISYDGSNKYYADSVKGRFTISRDNSKNTLYLQMNSLRAEDTAVYYCARSASGSYYGAFDYWGQGTLVTVSS VL: QTVVTQPASVSGSPGQSITISCTGTSSDVGGYNYVSWYQQHPGKAPKLMIYDVSNRPSGVSNRFSGSKSGNTASLTISGLQAEDEADYYCSSYTSSSTLGLYVFGTGTKVTVL | binds | – | –
COVA2-39 (antibody, V domains shown) VH: QVQLVETGGGLIQPGGSLRLSCAASGFTVSSNYMSWVRQAPGKGLEWVSVIYTGGTTYYADSVKGRFTISRDNSKNTLYLQMNSLRAEDTAVYYCARAHVDTAMVESGAFDIWGQGTRVTVSS VL: QSALTQPASVSGSPGQSITISCTGTSSDVGSYNLVSWYQQHPGKAPKLMIYEVTKRPSGVSNRFSGSKSGNTASLTISGLQAEDEADYYCCSYAGSSTWVFGGGTKLTVL | binds | – | –
COVA2-41 (antibody, V domains shown) VH: EVQLVESGGGLVKPGGSLRLSCSASGFTFSNYNMDWVRQAPGKGLEWVSSISSSSSYIYLADSVKGRFTISRDNAKNSLYLQMNSLRAEDTAVYYCARVQKDIVVVPVALADYYYYGMDVWGQGTTVTVSS VL: DIVMTQSPATLSVSPGERATLSCRASQSVSSNLAWYQQKPGQAPRLLIYGASTRATGIPARFSGSGSGTEFTLTISSLQPEDFAVYYCQQCYNWPPWTFGQGTRVEFK | binds | – | –
COVA2-43 (antibody, V domains shown) VH: QVQLVQPGAEVKKPGASVKVSCKASGYTFTSYGISWVRQAPGQGLEWMGWISAYNGDTNYAQKLQGRVTMTTDTSTSTAYMELRSLKSDDTAVYYCARFDYGYPYSSWSVLSIDYWGQGTLVTVSS VL: DIVMTQSPSSLSASVGDRVTITCRASQGIRNDLGWYQQKPGKAPKRLIYAASSLQSGVPSRFSGSGSGTEFTLTISSLQPEDFATYYCLQHNSYPLTFGGGTKLEIK | binds | – | –
COVA3-08 (antibody, V domains shown) VH: EVQLVESGPGLVKPSETLSLTCTVSGGSISSYYWSWIRQPPGKGLEWIGYIYYSGSTNYNPSLKSRVTISVDTSKNQFSLRLSSVTAADTAVYYCARGPAATYYYYMDVWGKGTMVTVSS VL: not shown | binds | – | –
CV07-270 (antibody, V domains shown) VH: QVQLVESGGGLVKPGGSLRLSCAASGFTFSDYYMTWIRQAPGKGLEWVSYISSSGSTIYYADSVKGRFTISRDNAKNSLYLQMNSLRAEDTAVYYCARARGSSGWYRIGTRWGNWFDPWGQGTLVTVSS VL: QSALTQPASVSGSPGQSITISCTGTSSDVGGYNYVSWYQQHPGKAPKLMIYEVSNRPSGVSNRFSGSKSGNTASLTISGLQAEDEADYYCSSYTSSSNVVFGGGTMLTVL | binds | – | –
P2B-2F6 (antibody, V domains shown) VH: QVQLQESGPGLVKPSETLSLTCTVSGYSISSGYYWGWIRQPPGKGLEWIGSIYHSGSTYYNPSLKTRVTISVDTSKNQFSLKLSSVTAADTAVYYCARAVVGIVVVPAAGRRAFDIWGQGTMVTVSS VL: QSALTQPPSASGSPGQSVTISCTGTSSDVGGYNYVSWYQQHPGKAPKLMIYEVSKRPSGVPDRFSGSKSGNTASLTVSGLQAEDEADYYCSSYAGSNNLVFGGGTKLTVL | binds | – | –
S2E12 (antibody, V domains shown) VH: not shown VL: DIVLTQTPGTLSLSPGERATLSCRASQSVSSSYLAWYQQKPGQAPRLLIYGASSRATGIPDRFSGSGSGTDFTLTISRLEPEDFAVYYCQQYVGLTGWTFGQGTKVEIK | binds | – | –
S2M11 (antibody, V domains shown) VH: EVQLVQSGAEVKKPGASVKVSCKASGYTFTGYYMHWVRQAPGQGLEWMGWINPISSGTSYAQTFQGRVTMTSDTSITTAYMELSRLRSDDTAVYYCARAAPFYDFWSGYSYFDYWGQGTLVTVSS VL: not shown | binds | – | –
S2X35 (antibody, V domains shown) VH: QVQLVQSGAEVKKPGASVKVSCKASGYTFTNYGISWVRQAPGQGLEWMGWISAYKGNTNYAQKLQGRVTMTTDTSTSTAYMELRSLRSDDTAVYYCARPDYQVLGYDFWIGYYGMDVWGQGTTVIVSS VL: QSVLTQPPSVSGAPGQRVTISCTGSSSNIGAGYDVHWYQQLPGTAPKLLIYGNTNRPSGVPDRFSGSKSGTSASLAITGLQAEDEADYYCQSYDSSLSGSEVVFGGGTKLTVL | binds | – | –
S304 (antibody, V domains shown) VH: VQLVESGGGLVQPGGSLRLSCAASGFTFSSYDMHWVRQTTGKGLEWVSTIGTAGDTYYPDSVKGRFTISREDAKNSLYLQMNSLRAGDTAVYYCARGDSSGYYYYFDYWGQGTLLTVSS VL: DIEMTQSPSSLSAAVGDRVTITCRASQSIGSYLNWYQQKPGKAPKLLIYAASSLQSGVPSRFSGSGSGTDFTLTISSLQPEDFAIYYCQQSYVSPTYTFGPGTKVDIK | binds | – | –
LY-CoV555 (sdFab) (Fab, V domains shown) VH: QVQLVQSGAEVKKPGSSVKVSCKASGGTFSNYAISWVRQAPGQGLEWMGRIIPILGIANYAQKFQGRVTITADKSTSTAYMELSSLRSEDTAVYYCARGYYEARHYYYYYAMDVWGQGTAVTVSS VL: not shown | – | – | binds
CB6 (sdFab) (Fab, V domains shown) VH: EVQLVESGGGLVQPGGSLRLSCAASGFTVSSNYMSWVRQAPGKGLEWVSVIYSGGSTFYADSVKGRFTISRDNSMNTLFLQMNSLRAEDTAVYYCARVLPMYGDYLDYWGQGTLVTVSS VL: not shown | – | – | binds
